Ends that are not written are not given here.
B1: wtNbALFA (original alpaca-derived NbALFA single-domain antibody) (VHH)
VHH: EVQLQESGGGLVQPGGSLRLSCTASGVTISALNAMAMGWYRQAPGERRVMVAAVSERGNAMYRESVQGRFTVTRDFTNKMVSLQMDNLKPEDTAVYYCHVLEDRVDSFHDYWGQGTQVTVSS
notes: VHH; Any purification tag on the construct used in the BLI and SpA assays is not described; also called wild type NbALFA
B2: Variant 7 of humanized NbALFA (VHH)
VHH: EVQLVESGGGLVQPGGSLRLSCAASGVTISALNAMAMGWFRQAPGKGRELVAAVSERGNAMYRESVQGRFTISRDNAKRMVYLQMNSLRAEDTAVYYCHVLEDRVDSFHDYWGQGTQVTVSS
notes: CDR-grafted variant, produced in E. coli and purified by IMAC; The tag is not described
B3: Variant 11 of humanized NbALFA (VHH)
VHH: EVQLVESGGGLVQPGGSLRLSCAASGVTISALNAMAMGWYRQAPGKRREMVAAVSERGNAMYRESVKGRFTISRDNAKRMVYLQMNSLRAEDTAVYYCHVLEDRVDSFHDYWGQGTQVTVSS
B4: Variant 12 of humanized NbALFA (VHH)
VHH: EVQLVESGGGLVQPGGSLRLSCAASGVTISALNAMAMGWYRQAPGKRREMVAAVSERGNTMYRESVKGRFTISRDNAKRMVYLQMNSLRAEDTAVYYCHVLEDRVDSFHDYWGQGTQVTVSS
B5: Variant 9 of humanized NbALFA (VHH)
VHH: EVQLVESGGGLVQPGGSLRLSCAASGVTISALNAMAMGWYRQAPGKRREMVAAVSERGNAMYRESVQGRFTISRDNAKRMVYLQMNSLRAEDTAVYYCHVLEDRVDSFHDYWGQGTQVTVSS
notes: Further engineered humanized variant; Any tag on the tested construct is not described
B6: Variant 10 of humanized NbALFA (VHH)
VHH: EVQLVESGGGLVQPGGSLRLSCAASGVTISALNAMAMGWYRQAPGKRREMVAAVSERGNTMYRESVQGRFTISRDNAKRMVYLQMNSLRAEDTAVYYCHVLEDRVDSFHDYWGQGTQVTVSS
B7: Variant 13 of humanized NbALFA (VHH)
VHH: EVQLVESGGGLVQPGGSLRLSCAASGVTISALNAMAMGWYRQAPGKRREMVAAVSERGNTYYRDSVKGRFTISRDNAKRMVYLQMNSLRAEDTAVYYCHVLEDRVDSFHDYWGQGTQVTVSS
B8: Variant 15 of humanized NbALFA (VHH)
VHH: EVQLVESGGGLVQPGGSLRLSCAASGVTISALNAMAMGWYRQAPGKRREMVAAVSERGNTYYRDSVKGRFTISRDNSKNTLYLQMNSLRAEDTAVYYCHVLEDRVDSFHDYWGQGTQVTVSS
B9: Variant 8 of humanized NbALFA (VHH)
VHH: EVQLVESGGGLVQPGGSLRLSCAASGVTISALNAMAMGWFRQAPGKRREMVAAVSERGNAMYRESVQGRFTISRDNAKRMVYLQMNSLRAEDTAVYYCHVLEDRVDSFHDYWGQGTQVTVSS
notes: as for B5
B10: Variant 14 of humanized NbALFA (VHH)
VHH: EVQLVESGGGLVQPGGSLRLSCAASGVTISALNAMAMGWYRQAPGKRREMVAAVSERGNAMYRESVKGRFTISRDNSKNTLYLQMNSLRAEDTAVYYCHVLEDRVDSFHDYWGQGTQVTVSS
B11: Variant 5 of humanized NbALFA (VHH)
VHH: EVQLQASGGGFVQPGGSLRLSCAASGVTISALNAMAMGWFRQAPGKEREFVSAISERGNAYYRDSVKGRFTISRDNSKNTVYLQMNSLRAEDTATYYCAALEDRVDSFHDYWGQGTQVTVSS
notes: as for B2
B12: Variant 3 of humanized NbALFA (VHH)
VHH: EVQLLESGGGLVQPGGSLRLSCAASGVTISALNAMAMGWFRQAPGKGLEFVAAVSERGNAMYRESVQGRFTISRDNSKNTLYLQMNSLRAEDTAVYYCAALEDRVDSFHDYWGQGTLVTVSS
notes: as for B2
B13: Variant 4 of humanized NbALFA (VHH)
VHH: EVQLLESGGGLVQPGGSLRLSCAASGVTISALNAMAMGWFRQAPGKGLEFVAAVSERGNAYYRDSVKGRFTISRDNSKNTLYLQMNSLRAEDTAVYYCAALEDRVDSFHDYWGQGTLVTVSS
notes: as for B2
B14: Variant 6 of humanized NbALFA (VHH)
VHH: EVQLQASGGGFVQPGGSLRLSCAASGVTISALNAMAMGWFRQAPGKEREFVSAVSERGNAMYRESVQGRFTISRDNSKNTVYLQMNSLRAEDTATYYCAALEDRVDSFHDYWGQGTQVTVSS
notes: as for B2

Target: T1, epitope tag peptide SRLEEELRRRLTE (SEQ ID NO: 2), biotinylated (also: biotinylated (site and linker not given here))
T1 construct: Rationally designed peptide; also called ALFA-tag
T1 peptide: SRLEEELRRRLTE
Assay: BLI (Octet), biotinylated peptide on SAX2.0 biosensors, 1:1 global fit
Description: (§1) To determine the affinity of humanized NbALFA variants to the epitope tag of SEQ ID NO: 2, an Octet RED96 or an Octet HTX from ForteBio was utilized. The measurement principle is based on biolayer interferometry (BLI). SAX2.0 biosensors were soaked for 10 min in kinetic buffer (KB), supplied by the manufacturer of the instrument. At first, a 60 or 120 sec baseline in KB was measured, followed by a loading step of 240 sec with 83 ng/ml of biotinylated peptide of SEQ ID NO: 2. After loading, free streptavidin entities on the biosensor were quenched during a 120 sec incubation step in a 100 μg/ml biocytin solution. Subsequently, a 60 to 600 sec baseline in KB was measured followed by association of the VHH. The VHH was applied with a maximal concentration of 10 nM and was 1:1 serial diluted in KB. As a reference, only KB was measured. Association was performed for 900 sec, followed by a dissociation time of 1500 sec in KB. The signal of the reference well was subtracted from the signal of all other biosensors and the signals of these processed data were aligned to the average of the second baseline. For inter-step correction, the data were aligned to the dissociation step and Savitzky-Golay filtering was applied to all curves. Association and dissociations were globally fitted using a 1:1 Langmuir binding model.

Binder | Kd [nM] | koff [s⁻¹] | kon [M⁻¹ s⁻¹]
B1 | 0.16 | 6.37e-05 | 399000
B2 | 1.86 | 0.000276 | 149000

Target: T1, epitope tag peptide SRLEEELRRRLTE (SEQ …)
Assay: as above
Remark: another data set of the same source
Description: as §1

Binder | Kd [nM] | koff [s⁻¹] | kon [M⁻¹ s⁻¹]
B1 | 0.16 | 6.37e-05 | 399000
B3 | 0.0595 | 3.7e-05 | 622000
B4 | 0.248 | 0.000151 | 609000
B5 | 0.182 | 3.69e-05 | 203000
B6 | 0.306 | 0.000147 | 480000
B7 | 0.217 | 0.000167 | 767000
B8 |  | 0.000302 | 1.59e+06
B9 | 0.263 | 0.000263 | 1e+06
B10 | 0.218 | 0.00013 | 596000

Target: T1, epitope tag peptide SRLEEELRRRLTE (SEQ …)
Assay: biolayer interferometry (Octet); biotinylated peptide of SEQ ID NO: 2 loaded on SAX2.0 biosensors; VHH in solution, 1:1 serial dilution (Method 1)
Description: FIG. 1: Affinity of humanized NbALFA variants generated by CDR grafting. A, affinity measurements of the original alpaca-derived NbALFA (wtNbALFA) for the peptide of SEQ ID NO: 2. B, affinity measurements of variant 3 for the peptide of SEQ ID NO: 2. C, affinity measurements of variant 4 for the peptide of SEQ ID NO: 2. D, affinity measurements of variant 5 for the peptide of SEQ ID NO: 2. E, affinity measurements of variant 6 for the peptide of SEQ ID NO: 2. F, affinity measurements of variant 7 for the peptide of SEQ ID NO: 2. Affinity was determined using biolayer interferometry as described in Method 1 of the Examples.
as §1

Binder | binding result
B11 | no binding
B12 | no binding
B13 | no binding
B14 | no binding
